Experimental data: patent US20040253632A1
Read-outs that look alike come from different tables or passages of the source.

Key:
[1] = biological target: DO11.10 scTCR/murine IgG2b fusion molecule (mouse) (UniProt P01867); assay: sandwich ELISA on supernatant of COS-7 cells co-transfected with both fusions; goat anti-murine kappa capture, anti-murine IgG2b-HRP detection, A450
[2] = biological target: DO11.10 TCR (endogenous T cell receptor of the DO11.10 T cell hybridoma); assay: cell-based or functional assay
[3] = biological target: DO11.10 TCR (endogenous T cell receptor of the DO11.10 T cell hybridoma); assay: cell-based or functional assay; remark: listed apart in the source
[4] = biological target: DO11.10 scTCR/murine CD3ζ fusion molecule (membrane-bound, on transfected cells) (mouse) (UniProt P24161); assay: cell-based or functional assay
UniProt P24161, sequence (P24161 whole entry, the tested form may be a part): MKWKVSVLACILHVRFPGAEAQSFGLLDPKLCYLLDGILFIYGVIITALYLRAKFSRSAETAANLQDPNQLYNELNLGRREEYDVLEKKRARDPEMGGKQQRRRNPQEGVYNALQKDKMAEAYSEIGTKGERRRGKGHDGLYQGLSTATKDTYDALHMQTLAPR

[5] = biological target: DO11.10 TCR (endogenous T cell receptor of the DO11.10 T cell hybridoma); assay: cell-based or functional assay; remark: listed apart in the source
[6] = biological target: DO11.10 scTCR/murine CD3ζ fusion molecule (membrane-bound, on transfected cells) (mouse) (UniProt P24161); assay: cell-based or functional assay; remark: listed apart in the source

UniProt P01867, sequence (P01867 other isoform, or with tags, fused parts or gaps): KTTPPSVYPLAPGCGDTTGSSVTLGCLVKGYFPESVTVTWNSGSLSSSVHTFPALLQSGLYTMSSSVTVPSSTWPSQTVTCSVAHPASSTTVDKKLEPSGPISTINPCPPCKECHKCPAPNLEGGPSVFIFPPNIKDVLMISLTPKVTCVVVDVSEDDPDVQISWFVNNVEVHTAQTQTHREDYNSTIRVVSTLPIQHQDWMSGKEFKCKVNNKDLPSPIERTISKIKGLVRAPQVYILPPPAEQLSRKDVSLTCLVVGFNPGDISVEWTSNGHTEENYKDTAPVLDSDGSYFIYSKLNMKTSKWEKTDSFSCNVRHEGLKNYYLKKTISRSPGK

DO11.10 scTCR/murine kappa fusion molecule
absorbance relative to the negative control (fold) [1]: 40 fold

scIA^d/OVA-IgM fusion (scIA^d/OVA fused to CH2-CH3-CH4 of human IgM heavy chain), multi-valent (from UniProt P01871 106-453) (peptide-MHC)
IL-2 ELISA value; DO11.10 T cells; 1 ng complex/well [2]: 0.268 A405
IL-2 ELISA value; DO11.10 T cells; 3 ng complex/well [2]: 0.529 A405
IL-2 ELISA value; DO11.10 T cells; 7 ng complex/well [2]: 0.838 A405
IL-2 ELISA value; DO11.10 T cells; 15 ng complex/well [2]: 1.18 A405
IL-2 ELISA value; DO11.10 T cells; 31 ng complex/well [2]: 1.42 A405
IL-2 ELISA value; DO11.10 T cells; 62 ng complex/well [2]: 1.33 A405
IL-2 ELISA value; DO11.10 T cells; 125 ng complex/well [2]: 1.61 A405
IL-2 ELISA value; DO11.10 T cells; 250 ng complex/well [2]: 1.48 A405
IL-2 ELISA value; DO11.10 T cells; 0.3 ng complex/well [3]: 0.192 A405
IL-2 ELISA value; DO11.10 T cells; 1 ng complex/well [3]: 0.195 A405
IL-2 ELISA value; DO11.10 T cells; 4 ng complex/well [3]: 0.23 A405
IL-2 ELISA value; DO11.10 T cells; 11 ng complex/well [3]: 0.601 A405
IL-2 ELISA value; DO11.10 T cells; 33 ng complex/well [3]: 1.64 A405
IL-2 ELISA value; DO11.10 T cells; 100 ng complex/well [3]: 1.7 A405
IL-2 ELISA value; DO11.10 T cells; 300 ng complex/well [3]: 0.853 A405
IL-2 ELISA value; BWDZ:CD4+ transfectants; 40 ng complex/well [4]: 0.305 A405
IL-2 ELISA value; BWDZ:CD4+ transfectants; 200 ng complex/well [4]: 0.34 A405
IL-2 ELISA value; BWDZ:CD4+ transfectants; 1000 ng complex/well [4]: 1.28 A405
IL-2 ELISA value; DO11.10 scTCR 2B4 transfectants; 1 ng complex/well [4]: 0.214 A405
IL-2 ELISA value; DO11.10 scTCR 2B4 transfectants; 3 ng complex/well [4]: 0.234 A405
IL-2 ELISA value; DO11.10 scTCR 2B4 transfectants; 7 ng complex/well [4]: 0.264 A405
IL-2 ELISA value; DO11.10 scTCR 2B4 transfectants; 15 ng complex/well [4]: 0.273 A405
IL-2 ELISA value; DO11.10 scTCR 2B4 transfectants; 31 ng complex/well [4]: 1.32 A405
IL-2 ELISA value; DO11.10 scTCR 2B4 transfectants; 62 ng complex/well [4]: 1.82 A405
IL-2 ELISA value; DO11.10 scTCR 2B4 transfectants; 125 ng complex/well [4]: 2.33 A405
IL-2 ELISA value; DO11.10 scTCR 2B4 transfectants; 250 ng complex/well [4]: 2.27 A405

scIA^d/OVA-IgG multimer (scIA^d/OVA-Cκ fusion with scIA^d/OVA-IgG2b heavy chain fusion) (peptide-MHC)
IL-2 ELISA value; DO11.10 T cells; 12.5 ng complex/well [3]: 0.184 A405
IL-2 ELISA value; DO11.10 T cells; 25 ng complex/well [3]: 0.758 A405
IL-2 ELISA value; DO11.10 T cells; 50 ng complex/well [3]: 2.11 A405
IL-2 ELISA value; DO11.10 T cells; 100 ng complex/well [3]: 2.9 A405

single-chain IA^d linked to HSV-1 glycoprotein D peptide GD 246-261 (scIA^d/GD), monovalent (peptide-MHC)
IL-2 ELISA value; DO11.10 T cells; 7 ng complex/well [2]: 0.163 A405
IL-2 ELISA value; DO11.10 T cells; 15 ng complex/well [2]: 0.152 A405
IL-2 ELISA value; DO11.10 T cells; 31 ng complex/well [2]: 0.213 A405
IL-2 ELISA value; DO11.10 T cells; 62 ng complex/well [2]: 0.164 A405
IL-2 ELISA value; DO11.10 T cells; 125 ng complex/well [2]: 0.179 A405
IL-2 ELISA value; DO11.10 T cells; 250 ng complex/well [2]: 0.18 A405
IL-2 ELISA value; DO11.10 T cells; 100 ng complex/well [3]: 0.152 A405
IL-2 ELISA value; DO11.10 scTCR 2B4 transfectants; 7 ng complex/well [4]: 0.163 A405
IL-2 ELISA value; DO11.10 scTCR 2B4 transfectants; 15 ng complex/well [4]: 0.152 A405
IL-2 ELISA value; DO11.10 scTCR 2B4 transfectants; 31 ng complex/well [4]: 0.213 A405
IL-2 ELISA value; DO11.10 scTCR 2B4 transfectants; 62 ng complex/well [4]: 0.164 A405
IL-2 ELISA value; DO11.10 scTCR 2B4 transfectants; 125 ng complex/well [4]: 0.179 A405
IL-2 ELISA value; DO11.10 scTCR 2B4 transfectants; 250 ng complex/well [4]: 0.227 A405

monovalent scIA^d/OVA-BirA complexes (monomer, no avidin) (peptide-MHC)
IL-2 ELISA value; DO11.10 cells; 31 ng complex/well [3]: 0.242 A450
IL-2 ELISA value; DO11.10 cells; 62 ng complex/well [3]: 0.398 A450
IL-2 ELISA value; DO11.10 cells; 125 ng complex/well [3]: 0.513 A450
IL-2 ELISA value; DO11.10 cells; 500 ng complex/well [3]: 1.05 A450
IL-2 ELISA value; DO11.10 cells; 1000 ng complex/well [3]: 1.16 A450

B1: IA^d/OVA complex on OVA peptide-pulsed A20 antigen presenting cells (peptide-MHC, mouse)
MHC II alpha: EDDIEADHVGFYGTTVYQSPGDIGQYTHEFDGDELFYVDLDKKKTVWRLPEFGQLILFEPQGGLQNIAAEKHNLGILTKRSNFTPATNEAPQATVFPKSPVLLGQPNTLICFVDNIFPPVINITWLRNSKSVTDGVYETSFLVNRDHSFHKLSYLTFIPSDDDIYDCKVEHWGLEEPVLKHWEPEIPAPMSELTETVVCALGLSVGLVGIVVGTIFIIQGLRSGGTSRHPGPL
MHC II beta: GNSERHFVVQFKGECYYTNGTQRIRLVTRYIYNREEYVRYDSDVGEYRAVTELGRPDAEYWNSQPEILERTRAEVDTACRHNYEGPETSTSLRRLEQPNVAISLSRTEALNHHNTLVCSVTDFYPAKIKVRWFRNGQEETVGVSSTQLIRNGDWTFQVLVMLEMTPHQGEVYTCHVEHPSLKSPITVEWRAQSESARSKMLSGIGGCVLGVIFLGLGLFIRHRSQKGPRGPPPAGLLQ
peptide: ISQAVHAAHAEINEAGR
IL-2 ELISA value; DO11.10 T cells with OVA peptide-loaded A20 cells; 0 µM compound 12G9 [5]: 1.91 A405
IL-2 ELISA value; DO11.10 T cells with OVA peptide-loaded A20 cells; 0 µM compound 211-C3 [5]: 2.02 A405
IL-2 ELISA value; DO11.10 T cells with OVA peptide-loaded A20 cells; 0 µM compound 211-C9 [5]: 2.02 A405
IL-2 ELISA value; DO11.10 T cells with OVA peptide-loaded A20 cells; 0 µM compound 211B9 [5]: 1.92 A405
IL-2 production of BW/DZ cells with full-length CD4 (BWDZ:CD4+) relative to DO11.10 cells; OVA peptide-mixed A20 APCs [6]: 75 to 80%
IL-2 production of BW/DZ cells with truncated CD4 lacking the cytoplasmic domain (BWDZ:deltaCM) relative to DO11.10 cells; OVA peptide-mixed A20 APCs [6]: 10%
